Patent US20190375826A1
Read-outs that look alike come from different tables or passages of the source.

Tests used:
[1] = target: DENV2 NS1 (nonstructural protein 1 of dengue virus type 2 strain 16681) (dengue virus serotype 2, strain 16681)
[2] = target: DENV2 NS1 (nonstructural protein 1 of dengue virus type 2 strain 16681) (dengue virus serotype 2, strain 16681); remark: listed apart in the source
[3] = target: DENV3 NS1 (nonstructural protein 1 of dengue virus type 3 strain H87) (dengue virus serotype 3, strain H87)
[4] = target: DENV3 NS1 (nonstructural protein 1 of dengue virus type 3 strain H87) (dengue virus serotype 3, strain H87); remark: listed apart in the source
[5] = target: DENV4 NS1 (nonstructural protein 1 of dengue virus type 4 strain H241) (dengue virus serotype 4, strain H241)
[6] = target: DENV4 NS1 (nonstructural protein 1 of dengue virus type 4 strain H241) (dengue virus serotype 4, strain H241); remark: listed apart in the source

B1: mAb33-7.1 (antibody, V domains shown)
VH: EVQLQESGAELAKPGASVKMSCKASGYTFTSYWMHWVKQRPGQVLEWIGYINPNTGFTEYSQKFKDKATLTAVKSSSTAYIQLTSLTSDDSAVYYCARENYRYDGAMDYWGQGTSVTVSS
VL: DIVLTQSPALMAAFPGDRVTITCSVSSSVSSSNLHWYQQKSETSPKPWIYGTSTLASGVPVRFSGSGSGTSYSLTISSMEAEDAATYYCQQWSSYPLTFGAGTKLELKR
B1 was tested, and the minimum detectable concentration of NS1 proteins [1] was 62.5 ng/mL and the minimum detectable concentration of NS1 proteins [2] was 3.91 ng/mL.

B2: mAb43-1.3 (antibody, V domains shown)
VH: GELQESGPQVVRPGTSVKISCKASGYSFSNYWMHWVKQRPGQGLEWIGVIDPSDSETRLNQKFKDKATLTVDKSSSTAYMQLSSPTSEDSAIYYCARSQFGLRFAYWGQGTLVTVSA
VL: DIVMTQSPSSMTVTAGEKVTMSCQSSQSLFNSGTQKNYLTWYQQKPGQPPKLLISWASTRDSGVPDRFTGSGSGTDFTLTINGVQAEDLAVYFCQNDYDSPYTFGGGTKLEIKR
In the case of B2, the minimum detectable concentration of NS1 proteins [3] is reported as 62.5 ng/mL and the minimum detectable concentration of NS1 proteins [4] is reported as 3.91 ng/mL.

B3: mAb22-1.5 (antibody, V domains shown)
VH: EVQLQQSGPELVKPGASVKISCKASGYTFTDYNIHWVKQSPGKSLEWIGYIYPDNGDTGYNQIFKNKATLTVDTSSSAAYMELRSLTSEDSAVYYCVRRVLLDSWGQGTSVTVSS
VL: DIQMTQTTSSLSASLGDRVTISCSASQDINNFLNWYQQKPDGTIKLLIYYTSSLQSGVPSRFSGSGSGTDYSLTISNLEPEDIATYYCQQYSKLPRTFGGGTKLEIKR
B3 gave a minimum detectable concentration of NS1 proteins [5] of 62.5 ng/mL and a minimum detectable concentration of NS1 proteins [6] of 0.977 ng/mL.
